Three molecules from PMC7283332 (2020) can be followed below.

Sequences and labels used below:
T1: Fc-wtNKG2D (human, UniProt P26718 78-216)
T1 chain: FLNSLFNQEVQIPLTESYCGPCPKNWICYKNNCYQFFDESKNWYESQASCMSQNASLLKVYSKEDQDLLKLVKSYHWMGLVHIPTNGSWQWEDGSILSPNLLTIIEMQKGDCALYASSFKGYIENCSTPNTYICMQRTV

B1: Fc-iNKG2D.YA (Fc fusion)
chain: T1 chain with Y75A
modifications: biotinylated only in the ELISA on coated ligand-Fc proteins
B2: ULBP2.R81W, monomeric α1α2 domain (domain or fragment)
chain: DPHSLCYDITVIPKFRPGPRWCAVQGQVDEKTFLHYDCGNKTVTPVSPLGKKLNVTTAWKAQNPVLREVVDILTEQLWDIQLENYTPKEPLTLQARMSCEQKAEGHSSGSWQFSFDGQIFLLFDSEKRMWTTVHPGARKMKEKWENDKVVAMSFHYFSMGDCIGWLEDFLMGMDSTLEPSAGAP
B3: ULBP2 α1α2 domain, C-terminal 6×-His (domain or fragment)
chain: B2 chain with W78R

Experiment in all cases: BLI
A general note: Biolayer interferometry detects binding as a change in optical thickness at a sensor tip.

For test [1], the target named is ULBP2.S3 (U2S3), monomeric α1α2 domain variant (human, UniProt Q9BZM5).
The target in another test is T1, Fc-wtNKG2D.
For the test “Fc-iNKG2D.YA”, the target named is B1.

Numbering of substitutions follows the chain as printed. In names and notes the source's numbering stands.

For orientation: Kd means the concentration at which binding is half-saturated. Low values mean a tighter complex, high ones a looser complex. With B1, in test [1], the Kd was 28 nM. As for B2, the Kd with Fc-wtNKG2D turned out to be 8 nM; with Fc-iNKG2D.YA it was 3600 nM.

For B3, the affinity in the test with Fc-wtNKG2D, expressed as Kd, was 350 nM.
